This experiment deals with T1, recombinant, soluble murine Jagged1 (mouse, UniProt Q9QXX0).
T1 construct: Jagged1, mouse, recombinant soluble form; also called recombinant mouse Jagged1
The experiment is described as follows: ELISA; plates coated with 500 ng/mL recombinant soluble murine Jagged1 in PBS; antibodies titrated 2000-15.63 ng/mL in PBSTM, 1.5 h at RT; detected with ALP-conjugated goat anti-murine Fc. Particulars: both partners purified.

T1 sequence (Q9QXX0 34-1067): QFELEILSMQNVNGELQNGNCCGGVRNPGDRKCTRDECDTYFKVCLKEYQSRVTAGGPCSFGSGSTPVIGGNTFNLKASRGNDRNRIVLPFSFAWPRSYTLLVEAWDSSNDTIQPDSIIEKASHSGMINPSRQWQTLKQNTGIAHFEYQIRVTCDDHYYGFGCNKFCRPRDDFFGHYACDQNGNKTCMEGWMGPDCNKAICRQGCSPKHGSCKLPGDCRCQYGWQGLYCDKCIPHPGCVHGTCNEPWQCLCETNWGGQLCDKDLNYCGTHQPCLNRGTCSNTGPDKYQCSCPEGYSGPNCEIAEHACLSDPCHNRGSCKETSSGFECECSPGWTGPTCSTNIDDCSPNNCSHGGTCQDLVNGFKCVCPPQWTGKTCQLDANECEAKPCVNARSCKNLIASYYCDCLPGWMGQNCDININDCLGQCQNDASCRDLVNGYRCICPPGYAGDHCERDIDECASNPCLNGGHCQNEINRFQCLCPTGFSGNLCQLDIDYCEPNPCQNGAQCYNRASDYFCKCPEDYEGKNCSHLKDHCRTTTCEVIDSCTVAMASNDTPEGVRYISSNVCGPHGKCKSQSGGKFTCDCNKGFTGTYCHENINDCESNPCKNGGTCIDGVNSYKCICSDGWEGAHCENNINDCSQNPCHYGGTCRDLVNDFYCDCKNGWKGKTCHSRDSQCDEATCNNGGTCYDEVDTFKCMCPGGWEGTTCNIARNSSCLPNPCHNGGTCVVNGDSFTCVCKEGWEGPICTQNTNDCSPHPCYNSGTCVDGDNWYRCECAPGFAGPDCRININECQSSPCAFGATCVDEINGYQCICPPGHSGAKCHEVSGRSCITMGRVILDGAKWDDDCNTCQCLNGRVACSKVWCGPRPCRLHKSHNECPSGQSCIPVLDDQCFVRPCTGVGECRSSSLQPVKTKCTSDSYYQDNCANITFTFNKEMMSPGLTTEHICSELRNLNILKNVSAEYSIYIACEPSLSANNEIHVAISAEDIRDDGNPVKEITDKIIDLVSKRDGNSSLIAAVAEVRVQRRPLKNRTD

B1: anti-JAG1.b70 mouse immunoglobulin G2a (mIgG2a), WT (antibody, V domains shown)
VH: EVQLVESGGGLVQPGGSLRLSCAASGFTFSNYGIHWVRQAPGKGLEWVGWITPDGGYTDYADSVKGRFTISADTSKNTAYLQMNSLRAEDTAVYYCARAGTLFAYWGQGTLVTVSS
VL: DIQMTQSPSSLSASVGDRVTITCRASQDVSTAVAWYQQKPGKAPKLLIYSASFLYSGVPSRFSGSGSGTDFTLTISSLQPEDFATYYCQQYYTTATTFGQGTKVEIK
notes: variable heavy domain of anti-JAG1.b70; constant domains of the mouse IgG2a heavy chain, wild type; variable light domain of anti-JAG1.b70; constant domain of the murine kappa light chain; Phage-display selected antibody in mIgG2a format; A batch provided by Genentech was used in animals; WT and PGLALA variants for the ELISAs were produced in HEK293E; The constant domains of the Fab in PDB 5BO1 …
For B1, the binding result was “binds”.

B2: anti-JAG1.b70 mIgG2a, PGLALA (P329G, L234A, L235A) (antibody, V domains shown)
VH: EVQLVESGGGLVQPGGSLRLSCAASGFTFSNYGIHWVRQAPGKGLEWVGWITPDGGYTDYADSVKGRFTISADTSKNTAYLQMNSLRAEDTAVYYCARAGTLFAYWGQGTLVTVSS
VL: DIQMTQSPSSLSASVGDRVTITCRASQDVSTAVAWYQQKPGKAPKLLIYSASFLYSGVPSRFSGSGSGTDFTLTISSLQPEDFATYYCQQYYTTATTFGQGTKVEIK
notes: variable heavy domain as in the heavy chain of m1; constant domains of the mouse IgG2a heavy chain with PGLALA in the CH2 domain; variable light domain as in the light chain of m1; constant domain of the murine kappa light chain; also called PGLALA-engineered anti-JAG1; effector-negative anti-JAG1; source: HEK293E, transient co-transfection, purified (anti-murine kLC CaptureSelect, SEC)
Take B2: the binding result was “binds”.

Values taken from PMC10229650 (Nature Communications, 2023).
